Results taken from patent publication US20120090043A1, “TARGETS FOR RETROVIRUS ASSOCIATED DISEASES” (priority 2009, published 2012).

B1: CCDC24: human host interactor protein, Gene ID 149473, expressed from transfected ORF vector (protein)
chain: MLRHSPSLWELVEEHVPLRERREVKRILGEAAVDLSLELRAEVAMLRALLQEARSSQAPSSRPISDPSSLLAPPPLLKDLLRQELRQLLQGLRHKAICEGRDQAQAWVQYSPRVLHFALEEPRCDLPEQEIFQMRGGGPSSGHRDLSIIKDQLNVSNIDQVARHLRGLLEEECHTLEREILILQRCLEEEYLRPCHPSEAALEPTLAELKEQKKAMEQELQASVGPSCVSPNHRQRPLGSSTQGLRPPLPLCGVAPLQCCLPAPPLEPYLRPRGQSATHRWGRQLQCSPREGPASTPMSSAAPQAPA
B2: C1orf94: human host interactor protein, Gene ID 84970, expressed from transfected ORF vector (protein)
chain: MRGGGGCVLALGGQRGFQKERRRMASGNGLPSSSALVAKGPCALGPFPRYIWIHQDTPQDSLDKTCHEIWKRVQGLPEASQPWTSMEQLSVPVVGTLRGNELSFQEEALELSSGKDEISLLVEQEFLSLTKEHSILVEESSGELEVPGSSPEGTRELAPCILAPPLVAGSNERPRASIIVGDKLLKQKVAMPVISSRQDCDSATSTVTDILCAAEVKSSKGTEDRGRILGDSNLQVSKLLSQFPLKSTETSKVPDNKNVLDKTRVTKDFLQDNLFSGPGPKEPTGLSPFLLLPPRPPPARPDKLPELPAQKRQLPVFAKICSKPKADPAVERHHLMEWSPGTKEPKKGQGSLFLSQWPQSQKDACGEEGCCDAVGTASLTLPPKKPTCPAEKNLLYEFLGATKNPSGQPRLRNKVEVDGPELKFNAPVTVADKNNPKYTGNVFTPHFPTAMTSATLNQPLWLNLNYPPPPVFTNHSTFLQYQGLYPQQAARMPYQQALHPQLGCYSQQVMPYNPQQMGQQIFRSSYTPLLSYIPFVQPNYPYPQRTPPKMSANPRDPPLMAGDGPQYLFPQGYGFGSTSGGPLMHSPYFSSSGNGINF
B3: FATE1: human host interactor protein, Gene ID 89885, expressed from transfected ORF vector (protein)
chain: MAGGPPNTKAEMEMSLAEELNHGRQGENQEHLVIAEMMELGSRSRGASQKKQKLEQKAAGSASAKRVWNMTATRPKKMGSQLPKPRMLRESGHGDAHLQEYAGNFQGIRFHYDRNPGTDAVAQTSLEEFNVLEMEVMRRQLYAVNRRLRALEEQGATWRHRETLIIAVLVSASIANLWLWMNQ
B4: DGCR6L: human host interactor protein, Gene ID 85359, expressed from transfected ORF vector (protein)
chain: MERYAAALEEVADGARQQERHYQLLSALQSLVKELPSSFQQRLSYTTLSDLALALLDGTVFEIVQGLLEIQHLTEKSLYNQRLRLQNEHRVLRQALRQKHQEAQQACRPHNLPVVQAAQQRELEAVEHRIREEQRAMDQKIILELDRKVADQQSTLEKAGVAGFYVTTNPQELMLQMNLLELIRKLQQRGCRAGNAALGLGGPWQSPAAQCDQKGSPVPP
B5: HSFY1: human host interactor protein, Gene ID 86614, expressed from transfected ORF vector (protein)
chain: MAHVSSETQDVSPKDELTASEASTRSPLCEHTFPGDSDLRSMIEEHAFQVLSQGSLLESPSYTVCVSEPDKDDDFLSLNFPRKLWKIVESDQFKSISWDENGTCIVINEELFKKEILETKAPYRIFQTDAIKSFVRQLNLYGFSKIQQNFQRSAFLATFLSEEKESSVLSKLKFYYNPNFKRGYPQLLVRVKRRIGVKNASPISTLFNEDFNKKHFRAGANMENHNSALAAEASEESLFSASKNLNMPLTRESSVRQIIANSSVPIRSGFPPPSPSTSVGPSEQIATDQHAILNQLTTIHMHSHSTYMQARGHIVNFITTTTSQYHIISPLQNGYFGLTVEPSAVPTRYPLVSVNEAPYRNMLPAGNPWLQMPTIADRSAAPHSRLALQPSPLDKYHPNYN
B6: DAZAP2: human host interactor protein, Gene ID 9802, expressed from transfected ORF vector (protein)
chain: MNSKGQYPTQPTYPVQPPGNPVYPQTLHLPQAPPYTDAPPAYSELYRPSFVHPGAATVPTMSAAFPGASLYLPMAQSVAVGPLGSTIPMAYYPVGPIYPPGSTVLVEGGYDAGARFGAGATAGNIPPPPPGCPPNAAQLAVMQGANVLVTQRKGNFFMGGSDGGYTIW
B7: FLJ22471: human host interactor protein, Gene ID 80212, expressed from transfected ORF vector (protein)
chain: MTSPHFSSYDEGPLDVSMAATNLENQLHSAQKNLLFLQREHASTLKGLHSEIRRLQQHCTDLTYELTVKSSEQTGDGTSKSSELKKRCEELEAQLKVKENENAELLKELEQKNAMITVLENTIKEREKKYLEELKAKSHKLTLLSSELEQRASTIAYLTSQLHAAKKKLMSSSGTSDASPSGSPVLASYKPAPPKDKLPETPRRRMKKSLSAPLHPEFEEVYRFGAESRKLLLREPVDAMPDPTPFLLARESAEVHLIKERPLVIPPIASDRSGEQHSPAREKPHKAHVGVAHRIHHATPPQAQPEVKTLAVDQVNGGKVVRKHSGTDRTV
B8: KIAA1949: human host interactor protein, Gene ID 170954, expressed from transfected ORF vector (protein)
chain: MATIPDWKLQLLARRRQEEASVRGREKAERERLSQMPAWKRGLLERRRAKLGLSPGEPSPVLGTVEAGPPDPDESAVLLEAIGPVHQNRFIRQERQQQQQQQQRSEELLAERKPGPLEARERRPSPGEMRDQSPKGRESREERLSPRETRERRLGIGGAQELSLRPLEARDWRQSPGEVGDRSSRLSEAWKWRLSPGETPERSLRLAESREQSPRRKEVESRLSPGESAYQKLGLTEAHKWRPDSRESQEQSLVQLEATEWRLRSGEERQDYSEECGRKEEWPVPGVAPKETAELSETLTREAQGNSSAGVEAAEQRPVEDGERGMKPTEGWKWTLNSGKAREWTPRDIEAQTQKPEPPESAEKLLESPGVEAGEGEAEKEEAGAQGRPLRALQNCCSVPSPLPPEDAGTGGLRQQEEEAVELQPPPPAPLSPPPPAPTAPQPPGDPLMSRLFYGVKAGPGVGAPRRSGHTFTVNPRRSVPPATPATPTSPATVDAAVPGAGKKRYPTAEEILVLGGYLRLSRSCLAKGSPERHHKQLKISFSETALETTYQYPSESSVLEELGPEPEVPSAPNPPAAQPDDEEDEEELLLLQPELQGGLRTKALIVDESCRR
B9: FLJ10726: human host interactor protein, Gene ID 55216, expressed from transfected ORF vector (protein)
chain: MSRIPLGKVLLRNVIRHTDAHNKIQEESDMWKIRELEKQMEDAYRGTKRKMLPSSSSRMRSDGFDEESQRYYWRPKNEISGTLEDDFLKAKSWNKKFYDYEANMPDRWGHSGYKELYPEEFETDSDQQDITNGKKTSPQVKSSTHESRKHKKSKKSHKKKQKKRSHKKQKKSKKEATDITADSSSEFSEETGASGTRKGKQPHKRKKKSRKKSLKKPALFLEAESNTSHSDDSASSSSEESEERDTKKTKRKKREKKAHTSVANNEIQERTNKRTNWKVATDERSAESSEDD
B10: DIPA: human host interactor protein, Gene ID 11007, expressed from transfected ORF vector (protein)
chain: MEAEAGGLEELTDEEMAALGKEELVRRLRREEAARLAALVQRGRLMQEVNRQLQGHLGEIRELKQLNRRLQAENRELRDLCCFLDSERQRGRRAARQWQLFGTQASRAVREDLGGCWQKLAELEGRQEELLRENLALKELCLALGEEWGPRGGPSGAGGSGAGPAPELALPPCGPRDLGDGSSSTGSVGSPDQLPLACSPDD
B11: DHRS10: human host interactor protein, Gene ID 51171, expressed from transfected ORF vector (protein)
chain: MATGTRYAGKVVVVTGGGRGIGAGIVRAFVNSGARVVICDKDESGGRALEQELPGAVFILCDVTQEDDVKTLVSETIRRFGRLDCVVNNAGHHPPPQRPEETSAQGFRQLLELNLLGTYTLTKLALPYLRKSQGNVINISSLVGAIGQAQAVPYVATKGAVTAMTKALALDESPYGVRVNCISPGNIWTPLWEELAALMPDPRATIREGMLAQPLGRMGQPAEVGAAAVFLASEANFCTGIELLVTGGAELGYGCKASRSTPVDAPDIPS

Test system: HTLV-1 LTR promoter transactivation by HTLV-1 Tax
Assay: Transactivation assay, HTLV-1 LTR luciferase reporter with HTLV-1 Tax
Type: cell-based
Details: HEK293 cells co-transfected with pHTLV1LTR-Luc, HTLV-1 Tax and the human ORF; relative luciferase activity 24 h post-transfection; positive if >=2 or <=0.5 and p<0.05
Source text: Twenty-four hours post-transfection, cells were washed three times with PBS, lysed and luciferase activities determined from two independent transfection experiments in triplicate. We computed a paired t-test to assess the difference of the means between samples with and without the human interactor. For a trial to be considered positive, the relative luciferase activities has to be >=2 or <=0.5, and the p-value of the t-test<0.05.
Expression vectors encoding human ORFs and HIV-1 Tat or HTLV-1 Tax proteins were tested in a transactivation reporter assay against reporter plasmids harboring HIV-1 or HTLV-1 viral promoter sequences cloned upstream of the luciferase reporter gene. […] Wherever not expressly specified, constructs used herein were generally made by sub-cloning entry clones from the ORFeome V3.1 into suitable destination vectors.

Molecule | HTLV_LTR transactiv. [fold change]
B1 | 2.88
B2 | 0.41
B3 | 0.49
B4 | 0.24
B5 | 0.43
B6 | 3.31
B7 | 2.25
B8 | 0.35
B9 | 0.19
B10 | 0.28
B11 | 0.41
